Results from the supplement of paper PMC11780869.

Test system: Bacillus subtilis
Experiment: cleaved RNA product abundance (RNA/gDNA barcode ratio) relative to median wild-type variant (ratio to wild type); higher = more accumulation of the downstream cleavage product
Conditions: cleavage site: cggR-gapA (positions -7 to +36 mutated)
Protocol: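 MPRA in B. subtilis. Mutagenized RNase Y cleavage-site regions (9% mutation rate) were inserted into a barcoded reporter mRNA (truncated aprE or tetM). Cells were grown in LB at 37°C to OD600 0.3. The cleaved RNA isoform was gel-purified and its barcodes counted; the RNA:gDNA barcode ratio was normalised to the median wild-type variant, and the median over barcodes is reported per variant. The printed sequence is the variable window only; the reporter flanks are not printed.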

[1] = experiment (reporter, strain, medium): exp 2b: truncated aprE reporter, strain BJT200
[2] = experiment (reporter, strain, medium): exp 4a: truncated aprE reporter, strain BJT201 with 2% xylose (RNase J1 expressed)

| Sequence | cleaved RNA product abundance [1] | cleaved RNA product abundance [2] | cleaved RNA product abundance (experiment (reporter, strain, medium): exp 6: tetM reporter, strain 168) |
| --- | --- | --- | --- |
| ACAGACGAAGGAGCCGCAAAGAAGTTAATAAGGGAAGAATAATCCCTCAATATAAATATCTCTCACTTATTTAAA | 0.135 | 0.17 | – |
| ACAGACGAAGGAGCCGCAAAGAAGTTAATAAGGGACGAATAATCCCTCAATATAAATATCTCTCACTTATTTAAA | 0.154 | 0.164 | – |
| ACAGACGAAGGAGCCGCAAAGAAGTTAATAAGGGATAAATAATCCCTCAATATAAATATCTCTCACTTATTTAAA | 0.253 | 0.382 | – |
| ACAGACGAAGGAGCCGCAAAGAAGTTAATAAGGGATCAATAATCCCTCAATATAAATATCTCTCACTTATTTAAA | 0.282 | 0.316 | – |
| ACAGACGAAGGAGCCGCAAAGAAGTTAATAAGGGATGAAAAATCCCTCAATATAAATATCTCTCACTTATTTAAA | – | 0.293 | – |
| ACAGACGAAGGAGCCGCAAAGAAGTTAATAAGGGATGAACAATCCCTCAATATAAATATCTCTCACTTATTTAAA | 0.251 | – | – |
| ACAGACGAAGGAGCCGCAAAGAAGTTAATAAGGGATGAAGAATCCCTCAATATAAATATCTCTCACTTATTTAAA | – | 0.278 | – |
| ACAGACGAAGGAGCCGCAAAGAAGTTAATAAGGGATGAATAAACCCTCAATATAAATATCTCTCACTTATTTAAA | 0.167 | 0.177 | – |
| ACAGACGAAGGAGCCGCAAAGAAGTTAATAAGGGATGAATAACCCCTCAATATAAATATCTCTCACTTATTTAAA | – | 0.192 | – |
| ACAGACGAAGGAGCCGCAAAGAAGTTAATAAGGGATGAATAAGCCCTCAATATAAATATCTCTCACTTATTTAAA | – | 0.197 | – |
| ACAGACGAAGGAGCCGCAAAGAAGTTAATAAGGGATGAATAATACCTCAATATAAATATCTCTCACTTATTTAAA | 0.0994 | 0.144 | – |
| ACAGACGAAGGAGCCGCAAAGAAGTTAATAAGGGATGAATAATCACTCAATATAAATATCTCTCACTTATTTAAA | 0.112 | 0.109 | – |
| ACAGACGAAGGAGCCGCAAAGAAGTTAATAAGGGATGAATAATCCATCAATATAAATATCTCTCACTTATTTAAA | 0.166 | 0.224 | – |
| ACAGACGAAGGAGCCGCAAAGAAGTTAATAAGGGATGAATAATCCCACAATATAAATATCTCTCACTTATTTAAA | 0.17 | 0.253 | – |
| ACAGACGAAGGAGCCGCAAAGAAGTTAATAAGGGATGAATAATCCCGCAATATAAATATCTCTCACTTATTTAAA | 0.0984 | – | – |
| ACAGACGAAGGAGCCGCAAAGAAGTTAATAAGGGATGAATAATCCCTAAATATAAATATCTCTCACTTATTTAAA | – | 0.306 | – |
| ACAGACGAAGGAGCCGCAAAGAAGTTAATAAGGGATGAATAATCCCTCAAAATAAATATCTCTCACTTATTTAAA | – | 0.25 | – |
| ACAGACGAAGGAGCCGCAAAGAAGTTAATAAGGGATGAATAATCCCTCAACATAAATATCTCTCACTTATTTAAA | – | 0.342 | – |
| ACAGACGAAGGAGCCGCAAAGAAGTTAATAAGGGATGAATAATCCCTCAATACAAATATCTCTCACTTATTTAAA | 0.0847 | – | – |
| ACAGACGAAGGAGCCGCAAAGAAGTTAATAAGGGATGAATAATCCCTCAATATAAAAATCTCTCACTTATTTAAA | – | 0.278 | – |
| ACAGACGAAGGAGCCGCAAAGAAGTTAATAAGGGATGAATAATCCCTCAATATAAACATCTCTCACTTATTTAAA | – | 0.338 | – |
| ACAGACGAAGGAGCCGCAAAGAAGTTAATAAGGGATGAATAATCCCTCAATATAAAGATCTCTCACTTATTTAAA | 0.182 | – | – |
| ACAGACGAAGGAGCCGCAAAGAAGTTAATAAGGGATGAATAATCCCTCAATATAAATACCTCTCACTTATTTAAA | – | 0.201 | – |

| Sequence | cleaved RNA product abundance [1] | cleaved RNA product abundance [2] | cleaved RNA product abundance (experiment (reporter, strain, medium): exp 6: tetM reporter, strain 168) |
| --- | --- | --- | --- |
| ACAGACGAAGGAGCCGCAAAGAAGTTAATAAGGGATGAATAATCCCTCAATATAAATAGCTCTCACTTATTTAAA | – | 0.293 | – |
| ACAGACGAAGGAGCCGCAAAGAAGTTAATAAGGGATGAATAATCCCTCAATATAAATATCTCTCACTTATTTAAA | 0.264 | 0.349 | 0.555 |
| ACAGACGAAGGAGCCGCAAAGAAGTTAATAAGGGATGAATAATCCCTCAATATAAATCTCTCTCACTTATTTAAA | – | 0.218 | – |
| ACAGACGAAGGAGCCGCAAAGAAGTTAATAAGGGATGAATAATCCCTCAATATAAATGTCTCTCACTTATTTAAA | – | 0.303 | – |
| ACAGACGAAGGAGCCGCAAAGAAGTTAATAAGGGATGAATAATCCCTCAATATACATATCTCTCACTTATTTAAA | – | 0.313 | – |
| ACAGACGAAGGAGCCGCAAAGAAGTTAATAAGGGATGAATAATCCCTCACTATAAATATCTCTCACTTATTTAAA | – | 0.263 | – |
| ACAGACGAAGGAGCCGCAAAGAAGTTAATAAGGGATGAATAATCCCTCATTATAAATATCTCTCACTTATTTAAA | – | 0.794 | – |
| ACAGACGAAGGAGCCGCAAAGAAGTTAATAAGGGATGAATAATCCCTCTATATAAATATCTCTCACTTATTTAAA | – | 0.39 | – |
| ACAGACGAAGGAGCCGCAAAGAAGTTAATAAGGGATGAATAATCCCTGAATATAAATATCTCTCACTTATTTAAA | – | 0.533 | – |
| ACAGACGAAGGAGCCGCAAAGAAGTTAATAAGGGATGAATAATCCCTTAATATAAATATCTCTCACTTATTTAAA | 0.572 | 0.519 | – |
| ACAGACGAAGGAGCCGCAAAGAAGTTAATAAGGGATGAATAATCCGTCAATATAAATATCTCTCACTTATTTAAA | 0.177 | – | – |
| ACAGACGAAGGAGCCGCAAAGAAGTTAATAAGGGATGAATAATCCTTCAATATAAATATCTCTCACTTATTTAAA | 0.185 | 0.237 | – |
| ACAGACGAAGGAGCCGCAAAGAAGTTAATAAGGGATGAATAATCGCTCAATATAAATATCTCTCACTTATTTAAA | – | 0.0788 | – |
| ACAGACGAAGGAGCCGCAAAGAAGTTAATAAGGGATGAATAATCTCTCAATATAAATATCTCTCACTTATTTAAA | 0.195 | 0.292 | – |
| ACAGACGAAGGAGCCGCAAAGAAGTTAATAAGGGATGAATAATGCCTCAATATAAATATCTCTCACTTATTTAAA | 0.121 | 0.124 | – |
| ACAGACGAAGGAGCCGCAAAGAAGTTAATAAGGGATGAATAATTCCTCAATATAAATATCTCTCACTTATTTAAA | 0.178 | 0.198 | – |
| ACAGACGAAGGAGCCGCAAAGAAGTTAATAAGGGATGAATAGTCCCTCAATATAAATATCTCTCACTTATTTAAA | – | 0.263 | – |
| ACAGACGAAGGAGCCGCAAAGAAGTTAATAAGGGATGAATATTCCCTCAATATAAATATCTCTCACTTATTTAAA | 0.246 | 0.279 | – |
| ACAGACGAAGGAGCCGCAAAGAAGTTAATAAGGGATGAATCATCCCTCAATATAAATATCTCTCACTTATTTAAA | 0.188 | 0.314 | – |
| ACAGACGAAGGAGCCGCAAAGAAGTTAATAAGGGATGAATGATCCCTCAATATAAATATCTCTCACTTATTTAAA | – | 0.284 | – |
| ACAGACGAAGGAGCCGCAAAGAAGTTAATAAGGGATGAATTATCCCTCAATATAAATATCTCTCACTTATTTAAA | – | 0.339 | – |
| ACAGACGAAGGAGCCGCAAAGAAGTTAATAAGGGATGACTAATCCCTCAATATAAATATCTCTCACTTATTTAAA | – | 0.308 | – |
| ACAGACGAAGGAGCCGCAAAGAAGTTAATAAGGGATGCATAATCCCTCAATATAAATATCTCTCACTTATTTAAA | – | 0.301 | – |
